Results on 138 substances are retold here after the supplement of paper PMC12042874.

± gives the uncertainty stated by the source.

The nature of the series: amyloid nucleation score (Sup35N fusion, yeast selection) (log enrichment); library NNK1; higher = more nucleation; inactive = no reads after selection. A digest of the protocol:
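The nucleation score is the DiMSum log enrichment of output over input reads, centred on the mode score of non-aggregating sequences. Only sequences with 100 or more input reads were scored, using Illumina sequencing of input and output plasmid inserts. Psi-negative yeast expressing Sup35N fused to peptides of 20 random codons were induced 24 hours with 100 μM copper sulfate and grown 7 days at 30°C on medium lacking adenine and uracil.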
Turning to VGFVATNCRWSCFS, the amyloid nucleation score was found to be 5.5 ± 0.11.
The value for VGHYDNSYGRNGLLTTR was -0.179 ± 0.53.
On to VGIILRLVQYSDEYYSCYAG, for which the amyloid nucleation score was -2.62 ± 2.4.
VGLIDANTSSTSWCEGMRNS showed an amyloid nucleation score of -0.321 ± 0.47.
VGLSVRACNFTRVGLMSFRD yielded an amyloid nucleation score of 0.388 ± 0.37.
Regarding VGNSSGWLTNHLAEKRGQTM, the amyloid nucleation score turned out to be 0.268 ± 1.1.
With VGNWYPGIG, the amyloid nucleation score result was “inactive”.
Take VGRACRPDWFLFLRRRKGSR: the amyloid nucleation score is -0.344 ± 0.44.
The substance VGSNYVCVI displayed an amyloid nucleation score of -0.545 ± 0.5.
For the substance VGSSVPGCRAGVFGLLDRCI, the amyloid nucleation score is -0.489 ± 1.7.
The substance VGTFTTELKVVGRIDIVWAR showed an amyloid nucleation score of 0.723 ± 0.46.
In turn, VGVYGRYIV yielded an amyloid nucleation score of -0.135 ± 0.28.
With VGWFSNESWYLAVNDYGPA, the amyloid nucleation score worked out at 0.335 ± 0.3.
As to VGYLFRSTSFV, the amyloid nucleation score entry was “inactive”.
Substance VHATLLNHA returned an amyloid nucleation score of 0.898 ± 0.64.
On to VHKAGDFNVTAFVNSNVFVS, for which the amyloid nucleation score result was “inactive”.
As for VHKDFHANANRVSWQLAL, the amyloid nucleation score is -0.243 ± 0.73.
VHLCLCRCVLCAENGLWPFS displayed an amyloid nucleation score of -0.761 ± 1.2.
As to VHRDFGSENYSTLEVCNSLT, the amyloid nucleation score is 1.16 ± 0.84.
As for VIAILLDGHLKVFTTLGYNR, the amyloid nucleation score is -1.59 ± 1.5.
In the case of VIAKRPSMWGSKRNFRLVRV it was 0.512 ± 0.88; in that of VIDKDGVANGKVVLASHCVN, -0.766 ± 0.86; in that of VIFYTFMVRTITACCLKLWV, “inactive”.
Take VIHYCYSCFSADQAGLLFTR: the amyloid nucleation score is 2.22 ± 0.14.
Substance VINIFMVSLANTETDPTAHL returned an amyloid nucleation score of 8.324 ± 0.071.
Regarding VINRSQIRGHRAFSWVGPSL, the amyloid nucleation score is 0.53 ± 0.38.
In the case of VIQHIYAKDSNCSHLV it was -0.529 ± 0.52.
Take VIRYSIKSCFLYIKTYQGYM: the amyloid nucleation score is -0.907 ± 0.43.
In the case of VITSVGWMLVYENQFTNLHL it was 6.855 ± 0.048; in that of VKALGHLRPTWLEKGCNHA, 0.289 ± 0.25; in that of VKATLSFSQFLHVVSYWGF, -0.342 ± 0.71.
VKFDLMAI registered an amyloid nucleation score of -0.777 ± 1.7.
In turn, VKGVD registered an amyloid nucleation score of 1.19 ± 0.64.
For the substance VKNWMYWQGMSVCRVCRGFY, the amyloid nucleation score came to 1.02 ± 0.38.
On to VKSYNGVGTMYLSRIMLYQY, for which the amyloid nucleation score turned out to be 0.163 ± 1.4.
The value for VKTYRPVSRGAKNKVRLAQG was 0.642 ± 0.49; that for VKVHEDSIRMEENSSDTYFK was -0.218 ± 0.34.
The substance VLDFLYILCVTLANDFLKGW had an amyloid nucleation score of 0.961 ± 0.76.
In the case of VLEDCNMRGK it was 0.789 ± 0.36.
Regarding VLGISLSERNLKGIV, the amyloid nucleation score is 0.232 ± 0.32.
VLHCCNAESWLGGWPLGVKN displayed an amyloid nucleation score of 0.85 ± 0.6.
The substance VLIKLCGYTILIRFGRFLCR gave an amyloid nucleation score of -0.203 ± 0.61.
For the substance VLILELDGS, the amyloid nucleation score is -1.11 ± 2.7.
As to VLILVDGSKMAPTALSCYSH, the amyloid nucleation score was 1.34 ± 0.49.
With VLKPSLGGCLSHSVMLKLSD, the amyloid nucleation score result was “inactive”.
Substance VLLFVRLILWTEGRYNCIMG yielded an amyloid nucleation score of -0.801 ± 1.2.
As for VLRFGRWSYFVGVLPEKKRQ, the amyloid nucleation score is -1.18 ± 2.4.
For VLSFDLVTVVGNKFLVWIKR, the amyloid nucleation score worked out at 0.276 ± 0.52.
With VLSFVLDYCNAEV, the amyloid nucleation score worked out at 0.653 ± 0.45.
The value for VLSRLCLYVSVMSRDNKYGS was 2.38 ± 0.46; that for VLTRMDKFGARQTSVTQEAG was 0.102 ± 0.62.
Substance VLYGLGSWLVRNIVLSYSVV had an amyloid nucleation score of 0.106 ± 0.24.
In the case of VLYLDLFWRPPSLKGLL it was -0.17 ± 0.32; in that of VMAMSMLYSLMRNGKKLHFK, 1.67 ± 0.6; in that of VMDGYVSGCFLWRCCNRNRS, 2.92 ± 0.12.
In the case of VMGIDSFTYAG it was -0.315 ± 0.54.
The value for VMHYYTSVYDVNYVRYSPPW was 1.16 ± 0.35; that for VMPRTES was 0.408 ± 0.9; that for VMQFGVSGNAGC was 0.778 ± 0.55.
VMRNYFRDPDRPRLKWIYLS showed an amyloid nucleation score of 7.095 ± 0.048.
Take VMSSKDKLIWYTFL: the amyloid nucleation score was 5.199 ± 0.049.
In the case of VMTRNTCVQVGLEGTSQFAG it was 0.435 ± 0.26; in that of VMTVMVFMRYRGRFVYG, -0.041 ± 0.98; in that of VMVIMDS, 2.11 ± 0.21.
On to VMVQANYMSSSSRSAYLSNM, for which the amyloid nucleation score entry is “inactive”.
The value for VMWGQPCQIFSGYAYLRHKV was 0.053 ± 0.48; that for VMYHGVLYLVNKKVRAWVVG was -0.511 ± 0.76; that for VNAIRSHAVWNGGQGPRFHS was -0.098 ± 0.42.
As to VNAPST, the amyloid nucleation score was 0.413 ± 1.1.
For the substance VNFYDRAYRIWCCRNASE, the amyloid nucleation score turned out to be 3.34 ± 0.088.
On to VNIRRRTLFS, for which the amyloid nucleation score was 0.023 ± 0.3.
Regarding VNKLLS, the amyloid nucleation score is -0.04 ± 0.28.
Take VNMRASSSMLTTVVAFIFPG: the amyloid nucleation score turned out to be 6.521 ± 0.047.
VNRFCSVQVDS showed an amyloid nucleation score of 0.074 ± 0.47.
VNSCFSQYYKGHPTLMHERL returned an amyloid nucleation score of 0.01 ± 0.39.
In turn, VNSLVVLF gave an amyloid nucleation score of 1.84 ± 0.23.
In turn, VNSNGTPCSMGIHMSGSYSP had an amyloid nucleation score of 0.226 ± 0.48.
VNTIQASMYW showed an amyloid nucleation score of 1.22 ± 0.62.
For the substance VNTVMGTMQLKLCHKLRIVG, the amyloid nucleation score was determined as 0.19 ± 0.71.
Turning to VNVCESTPPDVESRGVCDAG, the amyloid nucleation score was 2.06 ± 0.1.
VNVGRKYGAVLGPGVNYGAK gave an amyloid nucleation score of 0.142 ± 0.29.
VNWVLIERWVVS: the amyloid nucleation score is -1.13 ± 0.85.
As to VPCLVRA, the amyloid nucleation score was 0.506 ± 0.99.
VPGRWHSLCASYTLYA registered an amyloid nucleation score of 0.469 ± 0.72.
The value for VPMPGNDQWDGKRGYICIRS was 1.31 ± 0.48; that for VPNASLSWISFISHLFYMSS was 0.034 ± 0.37.
Substance VPNFDQSNGQCIGDTVLMWC came in with an amyloid nucleation score of 1.74 ± 0.49.
As to VPNYHAISYIVDLTMCSLFQ, the amyloid nucleation score came to 8.383 ± 0.057.
In the case of VPYVISINSMVWVGHRPVLP it was 6.132 ± 0.057; in that of VPYVRMNVR, 2.24 ± 0.14; in that of VQAVIWWRGRDYGRHRSRPW, -0.35 ± 0.35.
Consider VQETYGYLYRNNIDRGGHIN, for which the amyloid nucleation score was 2.07 ± 0.56.
The substance VQNDTTLHVIFILGRAW returned an amyloid nucleation score of 2.44 ± 0.12.
On to VQSSFSFYDVVNSPGHRWTW, for which the amyloid nucleation score was found to be 0.14 ± 0.45.
VQYLMWSFTVAKLVMQDYHG: the amyloid nucleation score was determined as 0.835 ± 0.43.
VRACSCMDCDTVYRNVLSMG displayed an amyloid nucleation score of -1.79 ± 2.4.
Substance VRENLNMLEIHRLGGVKKCV had an amyloid nucleation score of -1.06 ± 0.95.
VRFGWVSSTPVVGVSQLCAH registered an amyloid nucleation score of -0.305 ± 1.1.
For the substance VRFLISHRESVLKSMAGCVV, the amyloid nucleation score was 0.815 ± 0.93.
The value for VRFSLHDRGRQTRTCYSPWA was 0.006 ± 0.36; that for VRHGRSYSFLRQGDFMWCGS was -0.306 ± 0.57.
Take VRKEKRNCAGLGRTVVWVRG: the amyloid nucleation score was 0.461 ± 0.35.
Take VRLCIVHHG: the amyloid nucleation score worked out at 0.527 ± 0.49.
VRLIRGGFDGHADNAVCRWQ registered an amyloid nucleation score of 0.279 ± 0.7.
For VRMNCMDYQFNYLSLLLRTI, the amyloid nucleation score is -0.401 ± 0.45.
With VRNNYSTSIRVVRMAIMWPG, the amyloid nucleation score amounted to 5.83 ± 0.078.
The substance VRPNGVYSFRWTYGFPIQRA showed an amyloid nucleation score of 0.321 ± 0.6.
On to VRTPRRCCSY, for which the amyloid nucleation score was -0.096 ± 0.28.
The value for VRVFGVTEYNRSCSI was -0.847 ± 1.1; that for VRVKLKGLFGFNWDG was 0.36 ± 1.2.
On to VRVPLRSKMSNPRLMSRQAA, for which the amyloid nucleation score amounted to 0.089 ± 0.49.
Take VRYFCTFLWWSTIRQAQYNI: the amyloid nucleation score amounted to 0.218 ± 0.78.
With VRYYMALMRWDDNVNSMCMG, the amyloid nucleation score result is “inactive”.
In turn, VSFNCTNGFRIKHVLWSTDN registered an amyloid nucleation score of 1.09 ± 0.17.
In the case of VSGESDSYRVGFSEACLRKL, the amyloid nucleation score was -0.849 ± 0.65.
Substance VSGFGSTYLLCVN yielded an amyloid nucleation score of 0.589 ± 1.2.
The value for VSIRFSCRRIYNFLVEFPLG was -0.102 ± 0.19; that for VSKDSSIQRGSRQFCYLAYS was 1.08 ± 0.61; that for VSMATAVF was 1.22 ± 0.64.
VSNVRNSCLHLSARLYSTDL had an amyloid nucleation score of -0.702 ± 0.91.
Substance VSPSIRMGNQGSSFSVLNAL came in with an amyloid nucleation score of 0.149 ± 0.55.
In the case of VSQHSERQGAVCNRCFIVWR it was 6.101 ± 0.057; in that of VSSGRRIGCVSPGSGEAREW, 0.376 ± 0.61.
For the substance VSTCTL, the amyloid nucleation score result was “inactive”.
VSYKCSVRFLCIGRLRGVLF: the amyloid nucleation score was -0.197 ± 0.28.
In turn, VSYYITCRGKVETIALADRM came in with an amyloid nucleation score of 0.088 ± 0.93.
For the substance VTACGYRMRRCRCFCECNGT, the amyloid nucleation score amounted to 0.72 ± 0.57.
The substance VTCRCYSFSLMAGAMTRRSG displayed an amyloid nucleation score of 0.188 ± 0.75.
In turn, VTDCKLMCTVRPVSGSKTPV displayed an amyloid nucleation score of 0.139 ± 0.34.
The value for VTFLFNFWHVFC was 6.95 ± 0.074; that for VTFVIYNRDNSAEYGVVFC was -0.46 ± 0.71.
On to VTILWTKSYMESDISFYIMW, for which the amyloid nucleation score is -1.03 ± 0.44.
Substance VTIYFILRNGGRVSESLNPW displayed an amyloid nucleation score of 7.19 ± 0.084.
On to VTRVLLVKWPYNTVETCGGA, for which the amyloid nucleation score was -0.317 ± 0.33.
VTRVRFGSVWGSQVHRNFVM came in with an amyloid nucleation score of 0.212 ± 0.4.
In turn, VTYNGYVG gave an amyloid nucleation score of -0.205 ± 0.58.
In turn, VTYTISRELSFCPPITFGTL gave an amyloid nucleation score of 0.777 ± 0.73.
In the case of VVASAFSSL it was 0.388 ± 0.93.
